The numbers were not newly measured in patent publication US20240293585A1, “HIGH MOLECULAR WEIGHT ZWITTERION-CONTAINING POLYMERS” (Kodiak Sciences Inc., priority 0001, published 2024), which cites them from elsewhere.

As for “Cimzia: Fab′ against TNFa conjugated with a 40 kDa branched polymer [reference compound]”, the “Human half life after subcutaneous injection” value (human, subcutaneous) was 311 h.
Consider “Mircera: PEGylated form of recombinant human erythropietin [reference compound]”, for which the “in vivo half life after subcutaneous injection” value (chronic renal disease patients, subcutaneous) was “approximately 140 hours”.
On to “rhEPO: 30.4 kDa protein with 165 amino acids; native form of human erythropoietin with 3 N-linked chains”, for which the “mean terminal half life after intravenous injection” value (human, intravenous) is 7 h. The “mean terminal half life after subcutaneous injection” value (human, subcutaneous) was 16 h.
